The test addresses T1, extended S2 fusion intermediate of the SARS-CoV-2 spike (after S1 dissociation) (SARS-CoV-2, Victoria (probably …, UniProt P0DTC2, strain)).
T1 construct: A conformational and proteolytic state of m1, seen between the virion and ACE2VLP membranes; also called extended intermediate; extended S2 intermediate
As to the kind of experiment: cryo-electron tomography; virions pre-incubated with WS6 (200 ug/ml, 1 h, 37 °C), then ACE2VLPs and trypsin for 30 min at 37 °C, PFA-fixed. The following applies: one partner purified.

We go through 1 molecule from article PMC12134289 (Nature Communications, 2025).

B1: WS6 S2 stem-helix broadly neutralizing antibody (antibody, V domains shown)
VH: EVQFQQSGTVLARPGASVKMSCKASGYTFTNYWIHWVKQRPGQGLEYIGGTYPGNGDTTYNQKFKGKAKVTAVTPTSTAYMDLSSLTNEDSAVYYCTRTGSYFDYWGQGTTLTVSS
VL: QIVLTQSPAIMSASPGEKVTISCSATSSVSYIYWYQQRPGSSPKPWIYRTSNLASGVPVRFSGSGSGTSYSLTISNMEAEDAATYYCQQYQSYPPTFGAGTKLELK
notes: mouse-derived antibody; Whole antibody with two arms was used (200 ug/ml in PBS); also called WS6 S2 antibody; spike stalk antibody WS6; copies: 2 + 2
Turning to B1, the binding result was “binds”.
